Substitutions are numbered along the chain they refer to. Read-outs that look alike come from different tables or passages of the source.
How the values were obtained:
[1] = target: T1, SARS-CoV-2 spike S2 peptide 1143-1162, biotinylated (SARS-CoV-2); assay: SPR, Fab over captured biotin-peptide, 25 C
[2] = target: T2, SARS-CoV-2 spike S2 peptide 1149-1167, biotinylated (SARS-CoV-2); assay: SPR, Fab over captured biotin-peptide, 25 C
[3] = target: T2, SARS-CoV-2 spike S2 peptide 1149-1167, …; assay: SPR, Fab over captured biotin-peptide, 25 C; remark: listed apart in the source
[4] = target: HIV-1 Env peptide, biotinylated (negative control) (HIV-1); assay: DELFIA on captured biotin-peptide; parameters: unit not given beside the values
[5] = target: T1, SARS-CoV-2 spike S2 peptide 1143-1162, …; assay: DELFIA on captured biotin-peptide; parameters: unit not given beside the values
[6] = target: T2, SARS-CoV-2 spike S2 peptide 1149-1167, …; assay: DELFIA on captured biotin-peptide; parameters: unit not given beside the values

B1: AB-1 Fab (Fab, V domains shown)
VH: EVQLVESGAEVKKPGESLKISCKGSGYTFTRYWIGWVRQMPGKGLEWMGIIYPGDSDVRYSPSFQGHVTISADKSISTAYLQWNSLKASDTAMYYCARLPQYCSKGVCYRWFDPWGQGTLVTVSS
VL: EIVLTQSPSSVSASVGDRVTITCRASQGISSWLAWYQQKPGKAPKLLIYAASSLQSGVPSRFSGSGSGTDFTLTISSLQPEDFATYYCQQGHSFPYTFGQGTNLEIK
In the case of B1, the Kd [1] is reported as 12.3 nM, the koff [1] is reported as 0.037 s⁻¹ and the kon [1] is reported as 3e+06 M⁻¹ s⁻¹. The Kd [2] was 0.9 nM, the koff [2] was 0.00241 s⁻¹ and the kon [2] was 2.61e+06 M⁻¹ s⁻¹. The Kd [3] was 0.925 nM.

B2: Reference Antibody Fab (Fab, V domains shown)
VH: B1 VH with V58T, K105N, Y109Q
VL: B1 VL with H92N
For B2, the Kd [2] was 5.4 nM, the koff [2] was 0.00498 s⁻¹ and the kon [2] was 929000 M⁻¹ s⁻¹. For the same binder, the Kd [3] was 5.36 nM.

B3: AB-1 (antibody, V domains shown)
VH: B1 VH
VL: B1 VL
Binder B3 has an AUC [4] of 9860, an AUC [5] of 3.52e+06 and an AUC [6] of 3.27e+06.

B4: Reference Antibody (antibody, V domains shown)
VH: B1 VH with V58T, K105N, Y109Q
VL: B1 VL with H92N
For B4, the AUC [4] was 16100 and the AUC [6] was 3.05e+06.

— patent US20240360203A1
